The supplement of paper PMC12764529
± gives the half width of the 95% confidence interval.

How the values were obtained:
[1] = folding stability dG unfold from chymotrypsin proteolysis; higher = more stable
Protocol: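 Folding stability of de novo designed mini-proteins (<80 aa, no Cys; designed by TrROS, TrMRF, ProteinMPNN and the joint model) was measured by cDNA display proteolysis with trypsin and chymotrypsin. Each protease was used at 11 concentrations in a threefold dilution series plus a no-protease condition. K50 was inferred by Bayesian fitting of sequencing counts, and dG unfold was derived against a sequence-predicted unfolded-state K50 (Tsuboyama et al. method). Sequences shown include variable-length N-terminal GS-type padding (SAGGSAGG...) inside a display construct carrying a PA tag. Rows were kept only if the AF2 dimer inter-PAE was >15, to exclude likely homo-oligomers.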

[2] = folding stability dG unfold (combined trypsin and chymotrypsin); higher = more stable
Outline: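 How resistant each design was to proteolysis was captured as K50, inferred by Bayesian fitting of sequencing counts. Unfolding free energy was then derived relative to a sequence-predicted unfolded-state K50 and a shared folded-state K50, per protease or combined. Digestion used trypsin and chymotrypsin at 11 threefold-diluted concentrations plus a no-protease condition, on mini-proteins under 80 residues without cysteine in a PA-tagged cDNA display construct. Designs were kept only when AlphaFold2 dimer inter-PAE was above 15.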

Sequence	folding stability dG unfold [1]	folding stability dG unfold [2]
SAGGSAGGSAGSSSFIRKGKDGSRITATPSPSYITISTFPLKGGGIVPSTKTTTLPPSLLSAGGSAGGSAGG [r11_88_JUSTAS]	-0.915 ± 0.45 kcal/mol	< -1 kcal/mol
SAGGSAGGSAGVKIRMRGPNGSESKIPVPPDAIQDKFPPGDPIRIPIHRHNNNFHMDIEPVSAGGSAGGSAG [r3_86_TrROS]	0.353 ± 0.043 kcal/mol	-0.0674 ± 0.086 kcal/mol
SAGGSAGGSAKKELKIGNVEHNPGDGRYWANIQIKDGKPIVPVEFDDPQDPERFVKKAIKQLSAGGSAGGSA [r18_479_TrROS]	-0.706 ± 0.41 kcal/mol	< -1 kcal/mol
SAGGSAGGSAKTVEIPLKDLKPDKDGKYNYDEIQDQIKEKFPPNGIDKVDIDTPRQIWDQFRSAGGSAGGSA [r18_72_TrROS]	0.157 ± 0.21 kcal/mol	-0.329 ± 0.42 kcal/mol
SAGGSAGGSALPPGEPVEFPWRIKMGGEEHDVKRTVYRDPDGNVKLNIEIPMPPGNFEIEPVSAGGSAGGSA [r18_428_TrROS]	0.206 ± 0.22 kcal/mol	-0.451 ± 0.4 kcal/mol
SAGGSAGGSAMGPPVRRVTITLSDGTRYEVDVAPDDSVAAVRAPLAAHPDVAAVTELTVEPSAGGSAGGSAG [r3_308_JUSTAS]	0.99 ± 0.044 kcal/mol	0.282 ± 0.084 kcal/mol
SAGGSAGGSAMKITINVSPDEPGVTIEEAKKRLAPHPVEKVTQTPLPSNSLVVTVDVSPEASAGGSAGGSAG [r3_335_JUSTAS]	-0.457 ± 0.2 kcal/mol	< -1 kcal/mol
SAGGSAGGSAMNVTTETRTDPVTGNTTTTTTYTDTGEVVTTTTTTPPETTTTTTTTTSLTKSAGGSAGGSAG [r3_126_JUSTAS]	0.982 ± 0.07 kcal/mol	0.524 ± 0.2 kcal/mol
SAGGSAGGSAMRAVVVAFPPDGPPRVFPTDDLAPDERRVTFDPETGELALIEVLPEDGDPASAGGSAGGSAG [r3_356_TrMRF]	0.0788 ± 0.23 kcal/mol	< -1 kcal/mol
SAGGSAGGSAPLVLVAPGDAPVTVYPDPETGTYVAVFPDGSVLVAPVVGDVVPVVLLPPGLASAGGSAGGSA [r18_405_TrMRF]	0.677 ± 0.19 kcal/mol	-0.31 ± 0.23 kcal/mol
SAGGSAGGSAPPIPIQIKIERPDPDGEKRERKIPVWIPPNNIDEIKDEAEEEGWRVKEVTISAGGSAGGSAG [r3_453_TrROS]	0.29 ± 0.05 kcal/mol	-0.477 ± 0.18 kcal/mol
SAGGSAGGSARIDFPAIRRLLGSEAPAEDVVEAVEVIAKELAEELNLPDVEVDPRVVAPDELESAGGSAGGS [r12_666_TrMRF]	0.638 ± 0.068 kcal/mol	0.102 ± 0.22 kcal/mol
SAGGSAGGSASVGLLSVSTTPSGPGTTVTATTALPDGTVRTETRTEAGDGTATATTVTPLAASAGGSAGGSA [r18_79_JUSTAS]	0.271 ± 0.069 kcal/mol	-0.295 ± 0.15 kcal/mol
SAGGSAGGSATLTVEVLEEVVEPVPDPSLTPVRLLVRDPANGELREAVVIRDPRRGALRLESAGGSAGGSAG [r3_1_JUSTAS]	0.0495 ± 0.22 kcal/mol	-0.488 ± 0.22 kcal/mol
SAGGSAGGSEGFVLRVRRYRRRPDDRVRVPVSEAELEVLPELADAVARALREASPEVEVELRPSAGGSAGGS [r12_342_TrMRF]	0.0982 ± 0.27 kcal/mol	< -1 kcal/mol
SAGGSAGGSELRVLDARPTPDGLVVNLVAPDRLLVTRVDTGADGSQSVSSVVLDAPESTEFDLSAGGSAGGS [r12_981_TrMRF]	-0.918 ± 0.36 kcal/mol	< -1 kcal/mol
SAGGSAGGSGGMMVTITLPPGVPPSVVRAALEPLGVRVEVRPVPPVVPFRYPEPGELVFSPLGSAGGSAGGS [r12_80_JUSTAS]	0.373 ± 0.17 kcal/mol	< -1 kcal/mol
SAGGSAGGSGGMRVIRTKLEETEFFEETGESRTFEGLVIVEKEIYLPPYPRYPVFRFDEEKEASAGGSAGGS [r12_140_JUSTAS]	-0.379 ± 0.41 kcal/mol	-0.526 ± 0.42 kcal/mol
SAGGSAGGSGMVTVKRTVPPGNVEEAVNALTPPNLTITDVKVTELPDSVEVTVTVEDPFPGLVSAGGSAGGS [r12_445_JUSTAS]	0.587 ± 0.034 kcal/mol	0.0193 ± 0.12 kcal/mol
SAGGSAGGSGNPTPPAEPTVTLSTSDWNEVKERVEKAGLEYETFPGEGKVTLPASDFEKIKEESAGGSAGGS [r12_325_JUSTAS]	0.356 ± 0.049 kcal/mol	-0.00313 ± 0.14 kcal/mol
SAGGSAGGSGSSVERSPSGEVVTTTPTAGGTLRTVHDPSGTRTLTDVASGKVLATYTPAVPVASAGGSAGGS [r12_235_JUSTAS]	-0.638 ± 0.31 kcal/mol	< -1 kcal/mol

Sequence	folding stability dG unfold [1]	folding stability dG unfold [2]
SAGGSAGGSIPPGEEVPLRIKIWNPDNGKPRNEIPITMWVGDAEEIAEEFASTFPGYRVEIDPSAGGSAGGS [r12_21_TrROS]	0.717 ± 0.23 kcal/mol	0.102 ± 0.33 kcal/mol
SAGGSAGGSMIVVPLERELDPSEPGLTKEEVKAILEAKGLDVVDIKVSTDPAKGLTRAVAKVKSAGGSAGGS [r12_1052_JUSTAS]	-0.851 ± 0.35 kcal/mol	< -1 kcal/mol
SAGGSAGGSMLKVRIKIEIDGKTLEVEIEVPPGTTIEELAEALKKLFPGKEVKIVSVEVYELPSAGGSAGGS [r12_427_TrROS_Hall]	4.23 ± 0.14 kcal/mol	4.47 ± 0.25 kcal/mol
SAGGSAGGSMPVTVTVTTPDGTTQTLTADAPPAQTFTVTVTGPDGDPRPVRVTVHGTTVTVEGSAGGSAGGS [r12_784_TrMRF]	0.227 ± 0.22 kcal/mol	< -1 kcal/mol
SAGGSAGGSMTETVEKTMPSNGATAEITKLPDGSIKVTIKGSNPVIETFPADEPLVIKPGLEGSAGGSAGGS [r12_1003_JUSTAS]	0.621 ± 0.095 kcal/mol	0.263 ± 0.18 kcal/mol
SAGGSAGGSMVVTERSVRPVPRLVRTSDPSTGSSSVHLDPGAVETVRVIEEPPTPELLANTGASAGGSAGGS [r20_172_JUSTAS]	-1.36 ± 0.33 kcal/mol	< -1 kcal/mol
SAGGSAGGSSKTVPLKSEEEVKAVLEKLPPDAEYTVTDSEGKSKKVSPDEISFTPDPLTITVSSAGGSAGGS [r12_907_JUSTAS]	0.362 ± 0.043 kcal/mol	-0.131 ± 0.092 kcal/mol
SAGGSAGGSTLVFAPDDTLYLRIYLPETGGWRYIEVPAGQADSVARPLGAVRLEAYRRDEPVPSAGGSAGGS [r12_294_TrMRF]	0.83 ± 0.23 kcal/mol	0.123 ± 0.15 kcal/mol
SAGGSAGGSTVEELKKKAKELGLEVTVEKNKKDKKKITITVSEEAKKKLKEIAKEENIKVEIKSAGGSAGGS [r12_74_TrROS_Hall]	0.0632 ± 0.051 kcal/mol	-0.473 ± 0.47 kcal/mol
SAGGSAGGSVIPFPGNSRIYVTEVREDGVKIKFPDIGTEITVPANVPINLVGNPTIGPDGTPYSAGGSAGGS [r20_105_TrMRF]	-0.946 ± 0.53 kcal/mol	< -1 kcal/mol
SAGGSAGGSVTAVPIEELIPLPTPRTLKVTGTVYVLPGGEVVTERTLTEPSPGTVTVETKTIPLSAGGSAGG [r6_727_JUSTAS]	-0.517 ± 0.4 kcal/mol	< -1 kcal/mol
SAGGSAGGWFWVIKAEYPKNGRERSIQIPNEATDEDDVKEEVKELAEDLGAPIKKVEIEWIDPESAGGSAGG [r6_718_TrROS]	-0.474 ± 0.34 kcal/mol	< -1 kcal/mol
SAGGSAGGWVEQTYMVPPDMPVNMIKNKLEPWGVEIDDVEPFPNGNSIVTITIPPEFLKDPDEKSAGGSAGG [r6_470_TrROS]	0.574 ± 0.22 kcal/mol	-0.262 ± 0.51 kcal/mol
SAGGSAGMKNVVKPVAPGTSMTLKVTKPDGTPRTLTFPPNYTATVKTLPEGGKDEIISLEPVPPELSAGGSA [r15_82_JUSTAS]	-0.82 ± 0.53 kcal/mol	< -1 kcal/mol
SAGGSAGPMVKTTEFSAVYTGPGGVSRGPVAVTVEIPPGDPSNPVLTVTLPDGTPRTLAAGEVEAASAGGSA [r15_954_JUSTAS]	-0.672 ± 0.36 kcal/mol	-0.757 ± 0.27 kcal/mol
SAGGSAGSHNQSPDGITLDAPLSSEEEIEALVAEVKAAAPPTYTVTVERTRSPSTLSVDVIVTAAPSAGGSA [r15_80_JUSTAS]	-0.579 ± 0.19 kcal/mol	-0.895 ± 0.97 kcal/mol
SAGGSAIKPGDPYVRIKFRMGNEPMEFTIPAEKIKKITVDDPDDQVTIRFPGNGRKFPMKLEEVEISAGGSA [r15_495_TrROS]	-0.316 ± 0.33 kcal/mol	-0.41 ± 0.25 kcal/mol
SAGGSALTIKVKDPEDIKDLEIQVYLPDGRPMLMKIEVQRDEGPPYVKIKAENPGNGKKRKETFPFSAGGSA [r15_1006_TrROS]	0.0249 ± 0.53 kcal/mol	-0.243 ± 0.62 kcal/mol
SAGGSAMFTSSTSTDPATGLRRTTTLFPDSSAAVTTTVAVPPVPPLSPEAVAAGEAAAAAGRPPAVSAGGSA [r15_631_JUSTAS]	0.59 ± 0.17 kcal/mol	< -1 kcal/mol
SAGGSAMKIEVEEFPVLVPPELIPELKDKPGAIVKVKKVKFYAEAPEEEREKLKKELEEKTGIKTESAGGSA [r15_347_TrMRF]	0.0727 ± 0.61 kcal/mol	< -1 kcal/mol
SAGGSAMKTSLSRSTSTDPSDPNVTYKTTTTFLPDNTVLTNTTTTTRVGSSDVTTTTTTTTPIPAASAGGSA [r15_553_JUSTAS]	0.409 ± 0.18 kcal/mol	0.135 ± 0.18 kcal/mol
